Experiment [1] addresses KRas (G12V)·GppNHp (human) (UniProt P01116). Briefly: fluorescence polarization; FITC-labeled peptide at fixed concentration, KRas(G12V) GppNHp titrated 0.5 to 5000 nM; one-site fit with Hill coefficient.
The next experiment concerns the target NRas·GppNHp (UniProt P01111). Briefly: fluorescence polarization, FITC-225-3 with GppNHp-bound NRas.
The next experiment deals with T1, Rap1a (GppNHp-bound) (UniProt P62834 1-167, limits assumed).
T1 construct: also called Rapla (so in the source)
T1 sequence: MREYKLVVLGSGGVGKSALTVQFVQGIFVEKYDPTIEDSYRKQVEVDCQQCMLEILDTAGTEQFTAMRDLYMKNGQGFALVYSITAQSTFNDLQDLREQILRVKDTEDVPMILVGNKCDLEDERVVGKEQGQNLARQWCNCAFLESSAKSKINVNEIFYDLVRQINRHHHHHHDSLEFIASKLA
As to the kind of experiment: fluorescence polarization, FITC-225-3 with GppNHp-bound Rap1a; FP, GppNHp-bound Rap1a.

In experiment [2] the target is T2, Rab25 (GppNHp-bound) (UniProt P57735 1-213, limits assumed).
T2 sequence (looked up): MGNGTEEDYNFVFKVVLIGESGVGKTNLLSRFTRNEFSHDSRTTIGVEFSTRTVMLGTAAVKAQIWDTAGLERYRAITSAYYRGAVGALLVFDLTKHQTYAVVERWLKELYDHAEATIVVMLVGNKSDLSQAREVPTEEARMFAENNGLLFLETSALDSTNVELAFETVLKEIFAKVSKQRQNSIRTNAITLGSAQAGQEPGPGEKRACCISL
As to the kind of experiment: fluorescence polarization, FITC-225-3 with GppNHp-bound Rab25; FP, GppNHp-bound Rab25; weak binding given as a number. A general note: In fluorescence polarisation assays a small probe gives low polarisation when free and higher when bound to something large.

The target of experiment [3] is T2, Rab25 (GppNHp-bound). As to the kind of experiment: fluorescence polarization; FITC-labeled 225-3 at fixed concentration, protein titrated; one-site specific binding fit with Hill coefficient.
In the next experiment the target is T3, RalA (UniProt P11233 1-178, limits assumed).
T3 construct: also called RalA protein
T3 sequence: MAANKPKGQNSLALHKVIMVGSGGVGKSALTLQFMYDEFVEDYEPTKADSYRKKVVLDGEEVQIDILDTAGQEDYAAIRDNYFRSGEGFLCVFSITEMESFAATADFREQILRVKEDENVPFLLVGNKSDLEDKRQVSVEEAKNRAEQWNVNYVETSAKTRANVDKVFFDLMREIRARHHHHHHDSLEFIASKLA
Described as above.

Another experiment deals with HRas·GppNHp (UniProt P01112 1-177, limits assumed). As to the kind of experiment: fluorescence polarization, FITC-225-3 with GppNHp-bound HRas.
Experiment [4] addresses K-Ras (mutation and nucleotide state not stated where it is used) (UniProt P01116). Briefly: fluorescence polarization.

We go through 7 molecules from US20170240604A1 (Harvard, published 2017).

No end group written: not given here. fluorescein maleimide = fluorescein maleimide (label on cysteine) Bounds are passed on as bounds.

Broadly, the Kd is the concentration at which binding is half-saturated. As for GC(fluorescein maleimide)GGPRRPRRPRYPGDDASIEDLHEYWARLWNYLAAVA [225-3 Y29A], the Kd in experiment [1] turned out to be 200 nM.
As to GC(fluorescein maleimide)GGPRRPRRPAYPGDDASIEDLHEYWARLWNYLYAVA [225-3 R6A], in experiment [1], the Kd amounted to 340 nM.
Same read-out and setting: with GC(fluorescein maleimide)GGPRRPRRPRYPGDDASIEDLAEYWARLWNYLYAVA [225-3 H18A] the figure was 170 nM.
GC(fluorescein maleimide)GGPRRPRRPRYPGDAASIEDLHEYWARLWNYLYAVA [225-3 D11A]: in experiment [1], the Kd was found to be 550 nM.
The molecule GC(fluorescein maleimide)GGPRRPARPRYPGDDASIEDLHEYWARLWNYLYAVA [225-3 R3A] registered a Kd in experiment [1] of 84 nM. This Kd is about 6.5-fold lower than that of the molecule before.

B1: 225-3 (peptide)
peptide: GCGGPRRPRRPRYPGDDASIEDLHEYWARLWNYLYAVA
modifications: also: Cys2 labelled with fluorescein-maleimide or biotin-PEG2-maleimide, or unlabelled, depending on assay, non-covalent head-to-tail homodimer
notes: Recombinant, TEV-cleaved
Regarding B1, the Kd with NRas·GppNHp is 45 nM; with Rap1a (GppNHp-bound) it was 3500 nM; with Rab25 (GppNHp-bound) [2] it was roughly 10000 nM; with Rab25 (GppNHp-bound) [3], greater than 5000 nM; with RalA, greater than 5000 nM; with HRas·GppNHp, 45 nM.
The molecule GRRPRRPRCPGDDASIEDLHEYWARLWNYLYAVA (also: FITC label, site not given here) [RDA3] registered a Kd in experiment [4] of 6 nM.
